Measurements: paper PMC10754441

Molecular target: T1, TipR (Caulobacter crescentus NA1000) (UniProt A0A0H3C6G9)
T1 sequence: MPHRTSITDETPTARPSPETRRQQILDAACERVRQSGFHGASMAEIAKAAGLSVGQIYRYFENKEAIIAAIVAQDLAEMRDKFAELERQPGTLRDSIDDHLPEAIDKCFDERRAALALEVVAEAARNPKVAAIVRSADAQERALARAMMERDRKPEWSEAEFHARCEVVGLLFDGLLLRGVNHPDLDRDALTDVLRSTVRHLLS
Assay: EMSA
Details: EMSA: 40 mM Tris-HCl pH 7.6, 60 mM KCl, 0.1% glycerol, 240 ug calf DNA, 800 ug BSA, 100-200 ng probe, 30 min room temperature; 4% native TBE acrylamide gel

In the case of “GGCGGCGAGTCCCACGGTCGTCGCCGCGACCGAGCGTTGGAAATGCATGTTTGACCCCGGGAGGCGAGGGTCGCGCGGGCTCTTACCCTTGACGCGGCCACTATGATGAACGATTTGAGAATGAACGTTCATTCTCATGTGGGCTGGACATAAGAGCTGGAGTGTCGCAAGTCAACCTCCGGCGCCGCGCGTTTGGCTGACCTAACGGAAATGTAATGCCGCACAGGACTTC (double strand) [PacrA]”, the binding is reported as “binds”.
